Assay results published in the nanobody polyreactivity screen of Harvey et al. (2022).

Test: yeast display, Sf9 membrane polyspecificity reagent, FACS + sequencing; frameworks hold sequencing errors
Procedure, shortened: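 After 36–48 hours of galactose induction, yeast (Saccharomyces cerevisiae BJ5465) displaying a synthetic nanobody library were stained at 4 °C for 1 hour with 10% biotinylated, detergent-solubilized Sf9 membrane reagent. Streptavidin microbeads enriched the stained cells before FACS sorting into low and high (top ~1%) gates on anti-HA and streptavidin fluorescence. Each clone's polyreactivity label reflects its gate of origin.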

| Sequence | polyreactivity (PSR sort gate) |
| --- | --- |
| QVQIVESGGGLVQAGGSLRLICAASGSTFSEYAMGWYRQAPGKERELVAAIRWSGGSTSYADSVKGRFTISRVNAKNTVYLQMNSLKPEDTAVYYCAAERFWYDGEVKLYVLSYYWGQGTQVTVSS | low polyreactivity |
| QVQLGESGGGLVQAGGSLRLSCAASGRIFGGNAMGRYRQAPGKERELVATISSDGSTNYADSVKGRFTISRDIAKNTVYLQMNSLKPEDTAVYYCAKGFYTLTPHGMDYWGQGTQVTVSS | low polyreactivity |
| QVQLVESGGGLVQAGGSLRLSCAASGRTFYHNTIGGYRQQPGKERELVAVINDSGTRTYYADSVKGRFTISRDNAKNTVYLQMNSLKPEDTAVYYCAARSYVGGAILGYWGQGTQVTVSS | high polyreactivity |
| HVQLVESGGGLVQAGGSLRLICAASVRIFADNAMGWYRQAPGKERELSAAISESGGSTYYADSVKGRFTISRDNAKNTVYLEMNSLKPEDTAVYYCAATAEVHRAEPYDYWGQGTQVTVSS | low polyreactivity |
| QVQLVESGGGLVQAGGSLRLSCAASGSIFAFYAMGLYRQAPGKERELVAAITASGGRTYYADSVKGRFTISRDIAKNTVYLQMNSLKPEDTAVYYCAAERQTIYIGLYGYPGWSQYNYWGQGTQVTVSS | low polyreactivity |
| QVQLVESGGGLFQAGGSLRLSCAASGSTFGTYAMGRYRPPPAKERELVAAISTGGSTYYADSVKGRFTISRDNAKNTVYLQMNSLKPEDTAVYYCAALADYVRRASDYWGQGTQVTVSS | low polyreactivity |
| QVQLVESGGGLVQAGGSLRLSCAASGSTLGRYAMGWYRQAPGKERELVASITWSDDSTYYADSVKGRFTISRDNAKNTVYLQMNSLKPEDTAVYYCNAPPGTFQWQGHSDYWGQGTQVTVSS | low polyreactivity |
| QVQLVESGGGLVQAGGSLRLSCAASGSIFEKNAMGWYRQEPGKEWELFAAISSSGGRTNYADSVKGRFTISRDNAKNTVYLHMNSLKPEDTAVYYCAAYRRGHRYTGYEYWGQGTQVTVSS | high polyreactivity |
| QVQLVESGGGLVQAGGSLRLSCAASGSTFFANAMGWYRQAPGKERELVAAITIGNTNYADSVKGRFTISRDNAKNTVYLQMNSLKPEDTAVYYCNASHVSHYRARDYWGQGTQVTVSS | low polyreactivity |
| QVQLEESGGGLGQAGGSLRLSCAASGRIFRDYAMGWSRQAPGKERELVAAITSGGTTYADSVKGRVTISRDNAKNTVYLQLNSLKPEDTAVYYCNVAWIWGKFDYWGQGTQVTVSS | high polyreactivity |
| QVQLVESGGGLVQAGGSLRLSCAASGNIFLKNAMGWYRQAPGKERELVAAISKRGGSTYYAYSVKGRFTISRDNAKNTVYLQMNSLKPEDTAVYYCAAVLTKVWRGPEMDYWGQGTQVTVSS | high polyreactivity |
| QVQLVESGGGLVQAGGSLRLSCAASGSIFANNAMGWYRQAPGKERELVAAIDWSAASTYYADSVKGRFTISRDNAKNTVYLQMNSLKPEDTAVYYCNARALGGGHIGFNHYVYGFGYWGQGTQVTVSS | low polyreactivity |
| QVQLVESGGGLVQAGGSLRLSCAASGRTLYRNAMGWYRQAPGKERELVARITWSGASTYYADSVKGRFTISRDNAKNTVYLQMNSLKPDDTAVYYCNTGYWYVSLGSYDYYGEYDYWGQGTQVTVSS | high polyreactivity |
| QVQLVESGGGLVQAGGSLRLSCAASGSTFSEYGMGWYRQAPGKERELVARITSGGSPYYADSVKGRFTISRDNAKYTVYLQMNSLKPEDTAVYYCATVKTRDYWGQGTQVTVSS | low polyreactivity |
| QVQLVESGGGLVQAGGSLRLSCAASGRIFGYYAMGWYRQAPGKESELVARISSSGGSTYYADSVKGRFTISRDNAKNTVYLQMNSLKPEDTAVYYCNTASNRSPGWRAEFDYWGQGTQVTVSS | low polyreactivity |
| QVQLVESGGGLVQAGGSLRLSCAASGSIFTAYAMGWYRPAPGKERELVAAITSGGSTNYADSVKGRFTISRDNAKNTVYLQMNSLKPEDTAVYYCNADDYWLDSWSSVLWYDYWGQGTQVTVSS | low polyreactivity |
| QVQLLESGGGLVQAGGSLRLSCAPSGSTFGYYAMGWYRPAPGKERELVAAITSGGRTYYADSVKGRFTISRDNAKNTVYLQMISLKPEETAVYYFAAIYRTYNKFDYWGQGTQVTVSS | high polyreactivity |
| QVQLVESGGGLVQAGGSLRLSCAASGRIFRSYAMGGYRQAPGKERELVAAMTSGGSTNYADSVKGRFTISRDNAKNTVYLQMNSLKPEDTAVYYCNADRWKSGYWRYDYWGQGTQVTVSS | low polyreactivity |
| QVQIVESGGGLVQAGGSLRLSCAASGRTFPYYVMGWYRHAPGKERELVATISSSGRTYYADSVKGRFTISRDNAKNTVYLQMNSLKPEDTAVYYCAARFRWNQNYHFYYWGQGTQVTVSS | high polyreactivity |
| QDQLVESGGGVVQAGGSLRLSCDASGFIFYRYAMGWSRQAPGKERELLAAISRSGGSTYYADSVKRRFTISRDNAKYTVYLQLKSLKPEDTAVYYCATTGQRNLYLVNYSGQGTQVTVSS | low polyreactivity |
| QVQLVESGGGLVQVGGSLRLSCAASGGIFCGNSMGWYRQAPGKERDLVAAISWDASTYYEDTVKGRFTISRDNAMNTVYLQMNSLKPEDTAVYYCNADIPYYFVYDAYDYWGQGTQVNVSS | low polyreactivity |
| QVQLVESGGGLVQAGGSLRLSCAASGIIFYTYVMGWYRQAPGKEREFVAGISTSGGRTDYADSVKGRFTISRDNAKNTVYLQMNSLKPEDTAVYYCNKLYRYPRYYYWGQGTQVTVSS | high polyreactivity |

| Sequence | polyreactivity (PSR sort gate) |
| --- | --- |
| QVQLVESGGGLVQAGGSLRLSCAASGSTFWYYGMGWYRQAPGKERELVARINWSTGRTYYADSVKGRFTISRDNAKNTVYLQMNSLKPEDTAVYYCNALNPYKGQEAHYDYWGQGTQVTVSS | high polyreactivity |
| QVQLVESGGGLVQAGGSLRLSCAASGRTFGFNVMGCSRQAPGKERELVAAISWSGGSTYYADSVKGRFTISRDNAKNTVYLQLNSLKPEDTAVYYCNKRDDHRYGYWGQGTQVTVSS | low polyreactivity |
| QVQLVESGGGLVQAGGRLRLSCAASGRIFWSNTMGWYRQAPGKERELVAAISGRGGSTYYPDSVKGRFTISRDNAKNTVYLQMNSLKPEDTAVYYCAAKPTRSRKIYEYWGQGTQVTVSS | low polyreactivity |
| QVQLVESGGGLVQAGGSLRLSCAASGRIFRINDMGWYIQAPGKERELVAAITWSGGSTYYADSVKGRFTISRDNAKNPVYLPMNSLKPEDTAGYYCAADQAYFWGYYYWGQGTQVTVSS | low polyreactivity |
| QVQLVESGGGLVQAGGSLRLSCAASGSTFYSNVMGWYRQAPGKEREFVAGISGSGGSTYYADSVKGRFTISRDNAKNTVYLQMNSLKPEDTAVYYCAKYRYSRYFRYDYWGQCTQVTVSS | high polyreactivity |
| QVQLVESGGGLVQAGGSLRLSCAASGRIFYNNVMGWYRQAPGKERELVAAISGNGGSTYYADSVKGRFTISRDNAKNTVYLQMNSLKPEDTAVYFCAADDLYTDYETWWRRGDYWGQGTQVTVSS | low polyreactivity |
| QVQLVESGGGLVQAGGSLRLSCAAYGRYYSRNPMGWYRQAPGKERELVAAITWRGGSTYYADSVKGRFTISRDNAKNTVFLQMISLKPEDTAVYYCNRDYRQYGYAYSGRYYWGHGTQVTVSS | high polyreactivity |
| QVQLVESGGGLVQAGGSLRLSCAASGFIFAWSAMGWYRQAPGKERELVAAISYSGGSTFYADSVKGRFTISRDNAKNTVYLQMNSLKPEDTAVYYCARYYRALGTARNDYWGQGTQVTVSS | low polyreactivity |
| QVQLVESGGGLVQAGGSLRLSCAASGRILVRNAMGWYRQAPGQERELVAAITRTGASTYYADSVKGRFTISRDNPKNTVYLQMNSLKPEDTAVYYCAAVWGLPYWVYRYDYWGQGNQVTVSS | high polyreactivity |
| QVQLVESGGGLVQAGGRLRLSCADSGSTFLYNAMGWYRQAPGKERELVAAITSDGSTSYADSVKGRFTISRDNAKNTVYLQMNSLKPEDTALYYSAAYGFQHLSSLPFSRHNYWGQGTQVTVSS | low polyreactivity |
| QVQLVESGGGLVQAGGSLRLSCPASVLILVYYAMGWYRQAPGKERELVAAINPGGSTKYADSVKGRFTISRDNAKNTVYLQMNSLKQEDTEVYYCNADGEGADSDYDYWGQGTKVTVSS | low polyreactivity |
| QDQLVESGGGLVQAGGSLRLSCAASGITFPKYAMGWYRQAPGKERELVAAITKSGGSTYYADSVKGRFTISRDNAKNTVYLQMNSLKPEVTAVYYCAARPRYGEYDYWGQGTQVTVSS | high polyreactivity |
| QVPLVESAGGLVQAGGSLRLSCAASGITLYVYAKGWYRQAPGKERELVAAINSGGNTYYADSVKGRFTISRDNAKNTVYLQMNSLKPADTAVYYCAAVYPRQVSHVWRDDYWGQGTQVTVSS | high polyreactivity |
| QVQLVESGRGLVQAGGSLRLSCAASGYTFSHYAMGWYRQAPGKEMELVAGNTWSGGSTYYADSVKGRFTISRDNAKNTVYLQMNSLKPEDTSVYYCAAKYYWYYSYSGIPLFDYWGQGTQVTVSS | low polyreactivity |
| QVQLVESGGGLDQAGGSLRLSCAASGRIFVIYAMGWYRQAPGKERELVAVINDDGSTNYADSVKGRFTISRDNAKNTVYLQMNSLKPEDTAVYYCAAESARYLTFEFDYWGQSTQVTVSS | low polyreactivity |
| QVQLVESGGGLVQAGGSLRLSCAASGSIIYIYAMGWYRQAPGKERELVAAISSGDRTNYADSVKGRFTISRDNAKNTVYLQMNSLKPEDTAVYYCAAERKNKYDYWGQGTQVTVSS | high polyreactivity |
| QVQLVSGGGLVHSGGSLRLSCAASGITFESNAMGWYRQGPGKEREFVAAISYDGGDTYYADSVKGRFTISRDNAKNTVYLQMNSLKPDDTSVYYCAAETGWTMDYWGQGTQVTVSS | low polyreactivity |
| QVQLVESGGGLVQAGGSLRLSCAASGYILQKYAMGWYRQAPGKERELVATISGGGGSTYYADSVKGRFTISRDNAKNTVYLLMNSLKPEDTAVYYCAKEYPWLPRSYEYWGQGTQVSVSS | low polyreactivity |
| QVQHVESGGGLVQAGGSLRLSCAASGFIFASYTMGWYRQAPGKERELVATISRGGSTYYADSVKGRFTISRDNAKNTVYLQMNSLKPEATAVYYCATDVGKRAGYYGGVYPDFDYWGQGTQVTVSS | low polyreactivity |
| QVQLVESGGGLVQAGGSLRLSCAASGFTFVRYTMGWYRQAPGKERELVAVIRRGGSTYYADSVKGRFTISRDNAKNTVYLPMKSLKPEDTAVYYCNALSALAVEDGYWGQGTQVTVSS | low polyreactivity |
| QVQLVESGGGLVQAGGSLRLSCAASGRTFQYYAMGWYRQAPGKERELVAAITSGGSTYYADSVKGRFTISRDNAKNTVYLQMNSLKPEDTAVYYCAASFYYSGHDDYWGQGTQVTVSS | low polyreactivity |
